Laboratory results reported in patent US9701750B2.

Key:
[1] = target: human CD16A (FcγRIIIA) on the cell surface (human) (UniProt P08637)
[2] = target: human CD16A-Fc^48R/158F fusion protein (human); experiment: SPR (BIAcore 2000), antigen immobilized
[3] = target: human CD16A-Fc^48R/158V fusion protein (human); experiment: SPR (BIAcore 2000), antigen immobilized
CD16B-Fc^NA1 (human) [4] = experiment: SPR (BIAcore 2000), antigen immobilized
CD16B-Fc^SH (human) [5] = experiment: SPR (BIAcore 2000), antigen immobilized
CD16B-Fc^NA2 (human) [6] = experiment: SPR (BIAcore 2000), antigen immobilized
[7] = target: human CD16A-Fc^48R/158F fusion protein (human); experiment: SPR (BIAcore 2000), antigen immobilized, koff/kon
[8] = target: human CD16A-Fc^48R/158V fusion protein (human); experiment: SPR (BIAcore 2000), antigen immobilized, koff/kon
CD16B-Fc^NA1 (human) [9] = experiment: SPR (BIAcore 2000), antigen immobilized, koff/kon
CD16B-Fc^SH (human) [10] = experiment: SPR (BIAcore 2000), antigen immobilized, koff/kon
CD16B-Fc^NA2 (human) [11] = experiment: SPR (BIAcore 2000), antigen immobilized, koff/kon
[12] = target: human CD16A-Fc^48R/158V fusion protein (human); experiment: SPR (BIAcore 2000), CD16A-Fc immobilized, 1/1 Langmuir model
[13] = target: human CD16A-Fc^48R/158V fusion protein (human); experiment: SPR (BIAcore 2000), CD16A-Fc immobilized, koff/kon

Which results are given for anti-CD16 murine monoclonal antibody A9?
redirected lysis of FcR-positive P815 cells by freshly isolated NK cells (calcein release) [1]: 65%; koff [2]: 0.00038 s⁻¹; kon [2]: 99400 M⁻¹ s⁻¹; koff [3]: 0.000406 s⁻¹; kon [3]: 78600 M⁻¹ s⁻¹; koff (CD16B-Fc^NA1 (human) [4]): 0.000487 s⁻¹; kon (CD16B-Fc^NA1 (human) [4]): 77200 M⁻¹ s⁻¹; koff (CD16B-Fc^SH (human) [5]): 0.000528 s⁻¹; kon (CD16B-Fc^SH (human) [5]): 77900 M⁻¹ s⁻¹; koff (CD16B-Fc^NA2 (human) [6]): 0.000478 s⁻¹; kon (CD16B-Fc^NA2 (human) [6]): 75700 M⁻¹ s⁻¹; Kd [7]: 3.82 nM; Kd [8]: 5.17 nM; Kd (CD16B-Fc^NA1 (human) [9]): 8.91 nM; Kd (CD16B-Fc^SH (human) [10]): 11.4 nM; Kd (CD16B-Fc^NA2 (human) [11]): 9.63 nM; koff [12]: 0.000177 s⁻¹; kon [12]: 101000 M⁻¹ s⁻¹; Kd [13]: 1.75 nM
